Test results reported in the RNAGym collection of RNA variant scans (doi:10.1093/molbev/msab373).

B1: Azoarcus group I ribozyme (parent)
chain: GUGCCUUGCGCCGGGAAACCACGCAAGGGAUGGUGUCAAAUUCGGCGAAACCUAAGCGCCCGCCCGGGCGUAUGGCAACGCCGAGCCAAGCUUCGGCGCCUGCGCCGAUGAAGGUGUAGAGACUAGACGGCACCCACCUAAGGCAAACGCUAUGGUGAAGGCAUAGUCCAGGGAGUGGCGAAAGUCACACAAACCGG

Variants of: B1
Experiment: reverse-splicing fitness (ratio to wild type); higher = more active; in vitro selection; Mg2+ level not given
Summary of the method: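 An in vitro group I ribozyme library with randomized positions was T7-transcribed and gel-purified. In triplicate, 10 pmol RNA in EPPS pH 7.5 was reacted with 50 pmoles of a 30-nt RNA substrate for 1 h at 37 °C across several added MgCl2 levels (1–48 mM), then stopped with EDTA. Products were reverse transcribed from a substrate-complementary primer, PCR-amplified and sequenced (HiSeq 4000). Fitness is a variant's read proportion after selection over that before, normalised to wild type.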

Variant	reverse-splicing fitness
C82G A111C A145C C150A C169U U176G	0.0092
C82G A111C A145C C150A U176A	0.0144
C82G A111C A145C C150A U176C	0.0188
C82G A111C A145C C150A U176G	0.00879
C82G A111C A145C C150G	0.0271
C82G A111C A145C C150G C169A	0.00941
C82G A111C A145C C150G C169A U176A	0.00825
C82G A111C A145C C150G C169A U176C	0.00828
C82G A111C A145C C150G C169A U176G	0.00732
C82G A111C A145C C150G C169G	0.00675
C82G A111C A145C C150G C169G U176A	0.00893
C82G A111C A145C C150G C169G U176C	0.0101
C82G A111C A145C C150G C169G U176G	0.00664
C82G A111C A145C C150G C169U	0.00892
C82G A111C A145C C150G C169U U176A	0.00717
C82G A111C A145C C150G C169U U176C	0.0102
C82G A111C A145C C150G C169U U176G	0.0071
C82G A111C A145C C150G U176A	0.0132
C82G A111C A145C C150G U176C	0.0203
C82G A111C A145C C150G U176G	0.00447
C82G A111C A145C C150U	0.0631

Variant	reverse-splicing fitness
C82G A111C A145C C150U C169A	0.00808
C82G A111C A145C C150U C169A U176A	0.0156
C82G A111C A145C C150U C169A U176C	0.0132
C82G A111C A145C C150U C169A U176G	0.00839
C82G A111C A145C C150U C169G	0.00777
C82G A111C A145C C150U C169G U176A	0.0245
C82G A111C A145C C150U C169G U176C	0.0189
C82G A111C A145C C150U C169G U176G	0.00873
C82G A111C A145C C150U C169U	0.0113
C82G A111C A145C C150U C169U U176A	0.013
C82G A111C A145C C150U C169U U176C	0.0131
C82G A111C A145C C150U C169U U176G	0.00739
C82G A111C A145C C150U U176A	0.0341
C82G A111C A145C C150U U176C	0.044
C82G A111C A145C C150U U176G	0.0162
C82G A111C A145C C169A	0.00847
C82G A111C A145C C169A U176A	0.0184
C82G A111C A145C C169A U176C	0.015
C82G A111C A145C C169A U176G	0.00713
C82G A111C A145C C169G	0.00898
C82G A111C A145C C169G U176A	0.0274

Variant	reverse-splicing fitness
C82G A111C A145C C169G U176C	0.0197
C82G A111C A145C C169G U176G	0.00663
C82G A111C A145C C169U	0.0125
C82G A111C A145C C169U U176A	0.018
C82G A111C A145C C169U U176C	0.016
C82G A111C A145C C169U U176G	0.00741
C82G A111C A145C U176A	0.126
C82G A111C A145C U176C	0.137
C82G A111C A145C U176G	0.0504
C82G A111C A145G	0.289
C82G A111C A145G C150A	0.0364
C82G A111C A145G C150A C169A	0.00903
C82G A111C A145G C150A C169A U176A	0.0179
C82G A111C A145G C150A C169A U176C	0.0204
C82G A111C A145G C150A C169A U176G	0.0086
C82G A111C A145G C150A C169G	0.00789
C82G A111C A145G C150A C169G U176A	0.0149
C82G A111C A145G C150A C169G U176C	0.0256
C82G A111C A145G C150A C169G U176G	0.00825
C82G A111C A145G C150A C169U	0.00998
C82G A111C A145G C150A C169U U176A	0.0153

Variant	reverse-splicing fitness
C82G A111C A145G C150A C169U U176C	0.0161
C82G A111C A145G C150A C169U U176G	0.00863
C82G A111C A145G C150A U176A	0.0244
C82G A111C A145G C150A U176C	0.0396
C82G A111C A145G C150A U176G	0.0116
C82G A111C A145G C150G	0.0266
C82G A111C A145G C150G C169A	0.0091
C82G A111C A145G C150G C169A U176A	0.0115
C82G A111C A145G C150G C169A U176C	0.0129
C82G A111C A145G C150G C169A U176G	0.00829
C82G A111C A145G C150G C169G	0.00707
C82G A111C A145G C150G C169G U176A	0.00869
C82G A111C A145G C150G C169G U176C	0.0117
C82G A111C A145G C150G C169G U176G	0.00603
C82G A111C A145G C150G C169U	0.0089
C82G A111C A145G C150G C169U U176A	0.0103
C82G A111C A145G C150G C169U U176C	0.0116
C82G A111C A145G C150G C169U U176G	0.00728
C82G A111C A145G C150G U176A	0.0138
C82G A111C A145G C150G U176C	0.0214
C82G A111C A145G C150G U176G	0.00754
